From patent publication US6432702 (NEW YORK UNIVERSITY, dated 2002)

Tests used:
FGF receptor-1 (flg) [1] = biological target: T1, FGF receptor-1 (flg) (UniProt P16092 22-822, limits assumed); assay: competition with 125I-bFGF on CHO 4-1 cells expressing FGF receptor-1
T1 construct: whole, on cells; also called flg receptor; CHO 4-1 cells

FGF receptor-1 (flg) [2] = biological target: T1, FGF receptor-1 (flg); assay: Scatchard analysis, 125I-labeled ligand on CHO 4-1 cells expressing FGF receptor-1, 4 C
Experimental: Scatchard analysis of the binding of K-FGF and K-FGF-140 was performed on CHO 4-1 cells expressing the FGF receptor-1 as follows. Cells at 4.8×10^5/35mm dish were incubated at 4° C. with DMEM containing 0.15% gelatin, […].
In FIG. 7, Scatchard analysis of binding to high affinity receptors gave a straight line, indicating a single class of binding sites.

FGF receptor-2 (bek) = biological target: T2, FGF receptor-2 (bek) (UniProt P21803 22-821, limits assumed); assay: competition with 125I-bFGF on CHO 3-7.5 cells expressing FGF receptor-2
T2 construct: whole, on cells; also called CHO 3-7.5 cells
T2 sequence (P21803 22-821 limits assumed): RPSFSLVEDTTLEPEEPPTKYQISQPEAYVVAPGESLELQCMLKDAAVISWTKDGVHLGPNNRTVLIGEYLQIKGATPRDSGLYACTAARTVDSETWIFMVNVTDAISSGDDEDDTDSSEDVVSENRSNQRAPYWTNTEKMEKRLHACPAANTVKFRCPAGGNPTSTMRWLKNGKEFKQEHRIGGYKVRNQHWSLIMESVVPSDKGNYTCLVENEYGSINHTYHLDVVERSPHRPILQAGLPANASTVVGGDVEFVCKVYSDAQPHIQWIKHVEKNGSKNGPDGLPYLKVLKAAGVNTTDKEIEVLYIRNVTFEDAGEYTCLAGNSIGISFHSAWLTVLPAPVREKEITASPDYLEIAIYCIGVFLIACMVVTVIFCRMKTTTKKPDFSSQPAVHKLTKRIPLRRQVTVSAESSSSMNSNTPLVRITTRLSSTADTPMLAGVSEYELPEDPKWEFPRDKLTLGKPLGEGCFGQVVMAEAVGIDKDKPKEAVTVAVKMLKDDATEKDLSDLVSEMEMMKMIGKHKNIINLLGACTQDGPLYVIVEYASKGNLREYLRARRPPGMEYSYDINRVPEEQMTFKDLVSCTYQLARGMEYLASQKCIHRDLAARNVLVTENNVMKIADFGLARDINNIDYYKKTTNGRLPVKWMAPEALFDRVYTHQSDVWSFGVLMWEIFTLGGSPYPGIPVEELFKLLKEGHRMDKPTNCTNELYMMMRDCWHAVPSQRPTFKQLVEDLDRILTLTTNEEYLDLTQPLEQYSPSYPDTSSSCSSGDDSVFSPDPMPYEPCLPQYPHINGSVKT

T1 sequence (P16092 22-822 limits assumed): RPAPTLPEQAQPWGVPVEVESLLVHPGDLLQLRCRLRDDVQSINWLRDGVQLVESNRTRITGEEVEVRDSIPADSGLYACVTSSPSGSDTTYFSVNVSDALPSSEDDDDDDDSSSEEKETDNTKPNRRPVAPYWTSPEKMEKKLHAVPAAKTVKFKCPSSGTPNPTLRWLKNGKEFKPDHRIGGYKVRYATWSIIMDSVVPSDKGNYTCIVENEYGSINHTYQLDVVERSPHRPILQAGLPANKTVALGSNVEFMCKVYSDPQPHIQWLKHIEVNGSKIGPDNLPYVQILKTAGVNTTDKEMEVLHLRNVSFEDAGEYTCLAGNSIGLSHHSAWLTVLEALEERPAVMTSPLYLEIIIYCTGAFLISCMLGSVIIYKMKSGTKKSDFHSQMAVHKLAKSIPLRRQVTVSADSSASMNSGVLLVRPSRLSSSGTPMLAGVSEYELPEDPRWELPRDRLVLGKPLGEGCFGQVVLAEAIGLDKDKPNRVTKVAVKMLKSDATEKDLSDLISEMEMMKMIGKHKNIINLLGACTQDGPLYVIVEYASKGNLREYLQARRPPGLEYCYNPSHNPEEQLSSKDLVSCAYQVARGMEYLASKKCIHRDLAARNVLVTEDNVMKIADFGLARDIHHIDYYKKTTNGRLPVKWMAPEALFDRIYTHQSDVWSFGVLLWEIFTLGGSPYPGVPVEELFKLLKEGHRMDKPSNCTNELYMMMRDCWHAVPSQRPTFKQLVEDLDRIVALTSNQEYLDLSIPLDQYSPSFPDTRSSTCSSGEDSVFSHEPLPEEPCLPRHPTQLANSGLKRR

B1: K-FGF (full-length mature human growth factor) (ligand)
chain: APTAPNGTLEAELERRWESLVALSLARLPVAAQPKEAAVQSGAGDYLLGIKRLRRLYCNVGIGFHLQALPDGRIGGAHADTRDSLLELSPVERGVVSIFGVASRFFVAMSSKGKLYGSPFFTDECTFKEILLPNNYNAYESYKYPGMFIALSKNGKTKKGNRVSPTMKVTHFLPRL
notes: also called full-length K-FGF; FGF-4
fold more competitor needed than bFGF or K-FGF-140 (FGF receptor-1 (flg) [1]): ~8 fold | Kd (FGF receptor-1 (flg) [2]): ~0.285 nM

B2: K-FGF-140 (truncated K-FGF) (ligand)
chain: AAVQSGAGDYLLGIKRLRRLYCNVGIGFHLQALPDGRIGGAHADTRDSLLELSPVERGVVSIFGVASRFFVAMSSKGKLYGSPFFTDECTFKEILLPNNYNAYESYKYPGMFIALSKNGKTKKGNRVSPTMKVTHFLPRL
notes: Unglycosylated, 140 residues, about 14,000 Daltons; also called truncated mammalian growth factor; truncated protein
fold higher affinity than bFGF or full-length K-FGF (FGF receptor-2 (bek)): ~3 fold | Kd (FGF receptor-1 (flg) [2]): ~0.095 nM | fold higher affinity than full-length K-FGF (FGF receptor-1 (flg) [2]): ~3 fold
